{
  "source": "patent US20150045540A1",
  "about": "(published 2015)",
  "key": {"[1]": {"biological_target": "Hepatocyte Growth Factor (HGF), human (human, UniProt P14210 32-728)", "sequence (P14210 32-728)": "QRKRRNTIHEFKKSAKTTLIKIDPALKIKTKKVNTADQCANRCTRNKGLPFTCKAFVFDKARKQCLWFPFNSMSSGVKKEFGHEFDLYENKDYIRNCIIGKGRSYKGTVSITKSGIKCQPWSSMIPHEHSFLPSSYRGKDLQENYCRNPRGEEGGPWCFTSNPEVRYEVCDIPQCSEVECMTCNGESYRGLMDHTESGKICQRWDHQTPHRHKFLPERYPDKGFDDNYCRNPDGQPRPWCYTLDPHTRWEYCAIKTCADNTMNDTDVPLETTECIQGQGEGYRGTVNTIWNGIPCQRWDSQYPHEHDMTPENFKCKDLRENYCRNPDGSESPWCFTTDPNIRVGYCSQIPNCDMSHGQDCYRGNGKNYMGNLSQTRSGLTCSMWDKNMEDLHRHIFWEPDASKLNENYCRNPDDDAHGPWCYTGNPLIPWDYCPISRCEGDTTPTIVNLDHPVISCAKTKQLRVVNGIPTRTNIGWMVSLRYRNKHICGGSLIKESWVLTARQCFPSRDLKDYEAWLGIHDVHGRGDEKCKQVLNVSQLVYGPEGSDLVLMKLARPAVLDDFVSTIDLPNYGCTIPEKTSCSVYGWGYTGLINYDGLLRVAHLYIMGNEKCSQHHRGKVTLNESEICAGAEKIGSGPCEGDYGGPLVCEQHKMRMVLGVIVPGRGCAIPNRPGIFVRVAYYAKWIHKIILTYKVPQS", "test": "ELISA"}, "[2]": {"biological_target": "T1, Placenta Growth Factor (PlGF), human (human, UniProt P49763 21-149)", "T1 chain": "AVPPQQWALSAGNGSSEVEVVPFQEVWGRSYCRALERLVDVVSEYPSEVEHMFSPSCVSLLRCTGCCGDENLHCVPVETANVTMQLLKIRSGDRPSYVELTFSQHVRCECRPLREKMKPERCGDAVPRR", "test": "ELISA"}},
  "data": [
    {"binder": "HC 8/SLC 7 (antibody) chain 1: GQGTLVTVSSASTKGPSVQPVLHQPPAMSSALGTTIRLTCTLRNDHDIGVYSVYWYQQRPGHPPRFLLRYFSQSDKSQGPQVPPRFSGSKDVARNRGYLSISELQPEDEAMYYCAMGARSRCWPRGFQSKHNSVTHVFGSGTQLTVLSQPKATPSVTLFPPSSEELQANKATLVCLMNDFYPGILTVTWKADGTPITQGVEMTTPSKQSNNKYAASSYLSLTPEQWRSRRSYSCQVMHEGSTVEKTVAPAECS chain 2: MSWAPVLLMLFVYCTGCGPQPVLHQPPAMSSALGTTIRLTCTLRNDHDIGVYSVYWYQQRPGHPPRFLLRYFSQSDKSQGPQVPPRFSGSKDVARNRGYLSISVTHVFGSGTQLTVLSQPKATPQVQLVQ", "values": [
      {"measurement": "EC50", "setting": "[1]", "result": 58, "unit": "pM"},
      {"measurement": "EC50", "setting": "[2]", "result": 85, "unit": "pM"}
    ]},
    {"binder": "HC 8/SLC 6 (antibody) chain 1: GQGTLVTVSSASTKGPSVQPVLHQPPAMSSALGTTIRLTCTLRNDHDIGVYSVYWYQQRPGHPPRFLLRYFSQSDKSQGPQVPPRFSGSKDVARNRGYLSISELQPEDEAMYYCAMGARSRCWPRGFQSKHNSVTHVFGSGTQLTVLSQPKATPSVTLFPPSSEELQANKATLVCLMNDFYPGILTVTWKADGTPITQGVEMTTPSKQSNNKYAASSYLSLTPEQWRSRRSYSCQVMHEGSTVEKTVAPAECS chain 2: MSWAPVLLMLFVYCTGCGPQPVLHQPPAMSSALGTTIRLTCTLRNDHDIGVYSVYWYQQRPGHPPRFLLRYFSQSDKSQGPQVPPRFSGSKDVARNRGYLSISVTHVFGSGTQLTVLSQPKATQVQLVQ", "values": [
      {"measurement": "EC50", "setting": "[1]", "result": 61, "unit": "pM"},
      {"measurement": "EC50", "setting": "[2]", "result": 128, "unit": "pM"}
    ]},
    {"binder": "HC 8/SLC 15 (antibody) chain 1: GQGTLVTVSSASTKGPSVQPVLHQPPAMSSALGTTIRLTCTLRNDHDIGVYSVYWYQQRPGHPPRFLLRYFSQSDKSQGPQVPPRFSGSKDVARNRGYLSISELQPEDEAMYYCAMGARSRCWPRGFQSKHNSVTHVFGSGTQLTVLSQPKATPSVTLFPPSSEELQANKATLVCLMNDFYPGILTVTWKADGTPITQGVEMTTPSKQSNNKYAASSYLSLTPEQWRSRRSYSCQVMHEGSTVEKTVAPAECS chain 2: MSWAPVLLMLFVYCTGCGPQPVLHQPPAMSSALGTTIRLTCTLRNDHDIGVYSVYWYQQRPGHPPRFLLRYFSQSDKSQGPQVPPRFSGSKDVARNRGYLSISVTHVFGSGTQLTVLSQPKATPSVTGGGGSQVQLVQ", "values": [
      {"measurement": "EC50", "setting": "[1]", "result": 48, "unit": "pM"},
      {"measurement": "EC50", "setting": "[2]", "result": 50, "unit": "pM"}
    ]},
    {"binder": "HC 6/SLC 7 (antibody) chain 1: GQGTLVTVSSASTKGPQPVLHQPPAMSSALGTTIRLTCTLRNDHDIGVYSVYWYQQRPGHPPRFLLRYFSQSDKSQGPQVPPRFSGSKDVARNRGYLSISELQPEDEAMYYCAMGARSRCWPRGFQSKHNSVTHVFGSGTQLTVLSQPKATPSVTLFPPSSEELQANKATLVCLMNDFYPGILTVTWKADGTPITQGVEMTTPSKQSNNKYAASSYLSLTPEQWRSRRSYSCQVMHEGSTVEKTVAPAECS chain 2: MSWAPVLLMLFVYCTGCGPQPVLHQPPAMSSALGTTIRLTCTLRNDHDIGVYSVYWYQQRPGHPPRFLLRYFSQSDKSQGPQVPPRFSGSKDVARNRGYLSISVTHVFGSGTQLTVLSQPKATPQVQLVQ", "values": [
      {"measurement": "EC50", "setting": "[1]", "result": 56, "unit": "pM"},
      {"measurement": "EC50", "setting": "[2]", "result": 83, "unit": "pM"}
    ]},
    {"binder": "HC 6/SLC 3 (antibody) chain 1: GQGTLVTVSSASTKGPQPVLHQPPAMSSALGTTIRLTCTLRNDHDIGVYSVYWYQQRPGHPPRFLLRYFSQSDKSQGPQVPPRFSGSKDVARNRGYLSISELQPEDEAMYYCAMGARSRCWPRGFQSKHNSVTHVFGSGTQLTVLSQPKATPSVTLFPPSSEELQANKATLVCLMNDFYPGILTVTWKADGTPITQGVEMTTPSKQSNNKYAASSYLSLTPEQWRSRRSYSCQVMHEGSTVEKTVAPAECS chain 2: MSWAPVLLMLFVYCTGCGPQPVLHQPPAMSSALGTTIRLTCTLRNDHDIGVYSVYWYQQRPGHPPRFLLRYFSQSDKSQGPQVPPRFSGSKDVARNRGYLSISVTHVFGSGTQLTVLSQPQVQLVQ", "values": [
      {"measurement": "EC50", "setting": "[1]", "result": 69, "unit": "pM"},
      {"measurement": "EC50", "setting": "[2]", "result": 160, "unit": "pM"}
    ]},
    {"binder": "HC 4/SLC 3 (antibody) chain 1: GQGTLVTVSSASTKQPVLHQPPAMSSALGTTIRLTCTLRNDHDIGVYSVYWYQQRPGHPPRFLLRYFSQSDKSQGPQVPPRFSGSKDVARNRGYLSISELQPEDEAMYYCAMGARSRCWPRGFQSKHNSVTHVFGSGTQLTVLSQPKATPSVTLFPPSSEELQANKATLVCLMNDFYPGILTVTWKADGTPITQGVEMTTPSKQSNNKYAASSYLSLTPEQWRSRRSYSCQVMHEGSTVEKTVAPAECS chain 2: MSWAPVLLMLFVYCTGCGPQPVLHQPPAMSSALGTTIRLTCTLRNDHDIGVYSVYWYQQRPGHPPRFLLRYFSQSDKSQGPQVPPRFSGSKDVARNRGYLSISVTHVFGSGTQLTVLSQPQVQLVQ", "values": [
      {"measurement": "EC50", "setting": "[1]", "result": 60, "unit": "pM"},
      {"measurement": "EC50", "setting": "[2]", "result": 147, "unit": "pM"}
    ]},
    {"binder": "HC 9/SLC 3 (antibody) chain 1: GQGTLVTVSSASTKGPSVFQPVLHQPPAMSSALGTTIRLTCTLRNDHDIGVYSVYWYQQRPGHPPRFLLRYFSQSDKSQGPQVPPRFSGSKDVARNRGYLSISELQPEDEAMYYCAMGARSRCWPRGFQSKHNSVTHVFGSGTQLTVLSQPKATPSVTLFPPSSEELQANKATLVCLMNDFYPGILTVTWKADGTPITQGVEMTTPSKQSNNKYAASSYLSLTPEQWRSRRSYSCQVMHEGSTVEKTVAPAECS chain 2: MSWAPVLLMLFVYCTGCGPQPVLHQPPAMSSALGTTIRLTCTLRNDHDIGVYSVYWYQQRPGHPPRFLLRYFSQSDKSQGPQVPPRFSGSKDVARNRGYLSISVTHVFGSGTQLTVLSQPQVQLVQ", "values": [
      {"measurement": "EC50", "setting": "[1]", "result": 78, "unit": "pM"},
      {"measurement": "EC50", "setting": "[2]", "result": 136, "unit": "pM"}
    ]},
    {"binder": "HC 9/SLC 4 (antibody) chain 1: GQGTLVTVSSASTKGPSVFQPVLHQPPAMSSALGTTIRLTCTLRNDHDIGVYSVYWYQQRPGHPPRFLLRYFSQSDKSQGPQVPPRFSGSKDVARNRGYLSISELQPEDEAMYYCAMGARSRCWPRGFQSKHNSVTHVFGSGTQLTVLSQPKATPSVTLFPPSSEELQANKATLVCLMNDFYPGILTVTWKADGTPITQGVEMTTPSKQSNNKYAASSYLSLTPEQWRSRRSYSCQVMHEGSTVEKTVAPAECS chain 2: MSWAPVLLMLFVYCTGCGPQPVLHQPPAMSSALGTTIRLTCTLRNDHDIGVYSVYWYQQRPGHPPRFLLRYFSQSDKSQGPQVPPRFSGSKDVARNRGYLSISVTHVFGSGTQLTVLSQPKQVQLVQ", "values": [
      {"measurement": "EC50", "setting": "[1]", "result": 63, "unit": "pM"},
      {"measurement": "EC50", "setting": "[2]", "result": 164, "unit": "pM"}
    ]},
    {"binder": "HC 9/SLC 5 (antibody) chain 1: GQGTLVTVSSASTKGPSVFQPVLHQPPAMSSALGTTIRLTCTLRNDHDIGVYSVYWYQQRPGHPPRFLLRYFSQSDKSQGPQVPPRFSGSKDVARNRGYLSISELQPEDEAMYYCAMGARSRCWPRGFQSKHNSVTHVFGSGTQLTVLSQPKATPSVTLFPPSSEELQANKATLVCLMNDFYPGILTVTWKADGTPITQGVEMTTPSKQSNNKYAASSYLSLTPEQWRSRRSYSCQVMHEGSTVEKTVAPAECS chain 2: MSWAPVLLMLFVYCTGCGPQPVLHQPPAMSSALGTTIRLTCTLRNDHDIGVYSVYWYQQRPGHPPRFLLRYFSQSDKSQGPQVPPRFSGSKDVARNRGYLSISVTHVFGSGTQLTVLSQPKAQVQLVQ", "values": [
      {"measurement": "EC50", "setting": "[1]", "result": 65, "unit": "pM"},
      {"measurement": "EC50", "setting": "[2]", "result": 172, "unit": "pM"}
    ]},
    {"binder": "HC 3/SLC 2 (antibody) chain 1: GQGTLVTVSSASTQPVLHQPPAMSSALGTTIRLTCTLRNDHDIGVYSVYWYQQRPGHPPRFLLRYFSQSDKSQGPQVPPRFSGSKDVARNRGYLSISELQPEDEAMYYCAMGARSRCWPRGFQSKHNSVTHVFGSGTQLTVLSQPKATPSVTLFPPSSEELQANKATLVCLMNDFYPGILTVTWKADGTPITQGVEMTTPSKQSNNKYAASSYLSLTPEQWRSRRSYSCQVMHEGSTVEKTVAPAECS chain 2: MSWAPVLLMLFVYCTGCGPQPVLHQPPAMSSALGTTIRLTCTLRNDHDIGVYSVYWYQQRPGHPPRFLLRYFSQSDKSQGPQVPPRFSGSKDVARNRGYLSISVTHVFGSGTQLTVLSQQVQLVQ", "values": [
      {"measurement": "EC50", "setting": "[1]", "result": 53, "unit": "pM"},
      {"measurement": "EC50", "setting": "[2]", "result": 163, "unit": "pM"}
    ]},
    {"binder": "HC 4/SLC 2 (antibody) chain 1: GQGTLVTVSSASTKQPVLHQPPAMSSALGTTIRLTCTLRNDHDIGVYSVYWYQQRPGHPPRFLLRYFSQSDKSQGPQVPPRFSGSKDVARNRGYLSISELQPEDEAMYYCAMGARSRCWPRGFQSKHNSVTHVFGSGTQLTVLSQPKATPSVTLFPPSSEELQANKATLVCLMNDFYPGILTVTWKADGTPITQGVEMTTPSKQSNNKYAASSYLSLTPEQWRSRRSYSCQVMHEGSTVEKTVAPAECS chain 2: MSWAPVLLMLFVYCTGCGPQPVLHQPPAMSSALGTTIRLTCTLRNDHDIGVYSVYWYQQRPGHPPRFLLRYFSQSDKSQGPQVPPRFSGSKDVARNRGYLSISVTHVFGSGTQLTVLSQQVQLVQ", "values": [
      {"measurement": "EC50", "setting": "[1]", "result": 53, "unit": "pM"},
      {"measurement": "EC50", "setting": "[2]", "result": 188, "unit": "pM"}
    ]},
    {"binder": "HC 10/SLC 15 (antibody) chain 1: GQGTLVTVSSASTKGPSVFPQPVLHQPPAMSSALGTTIRLTCTLRNDHDIGVYSVYWYQQRPGHPPRFLLRYFSQSDKSQGPQVPPRFSGSKDVARNRGYLSISELQPEDEAMYYCAMGARSRCWPRGFQSKHNSVTHVFGSGTQLTVLSQPKATPSVTLFPPSSEELQANKATLVCLMNDFYPGILTVTWKADGTPITQGVEMTTPSKQSNNKYAASSYLSLTPEQWRSRRSYSCQVMHEGSTVEKTVAPAECS chain 2: MSWAPVLLMLFVYCTGCGPQPVLHQPPAMSSALGTTIRLTCTLRNDHDIGVYSVYWYQQRPGHPPRFLLRYFSQSDKSQGPQVPPRFSGSKDVARNRGYLSISVTHVFGSGTQLTVLSQPKATPSVTGGGGSQVQLVQ", "values": [
      {"measurement": "EC50", "setting": "[1]", "result": 54, "unit": "pM"},
      {"measurement": "EC50", "setting": "[2]", "result": 49, "unit": "pM"}
    ]},
    {"binder": "HC 10/SLC 5 (antibody) chain 1: GQGTLVTVSSASTKGPSVFPQPVLHQPPAMSSALGTTIRLTCTLRNDHDIGVYSVYWYQQRPGHPPRFLLRYFSQSDKSQGPQVPPRFSGSKDVARNRGYLSISELQPEDEAMYYCAMGARSRCWPRGFQSKHNSVTHVFGSGTQLTVLSQPKATPSVTLFPPSSEELQANKATLVCLMNDFYPGILTVTWKADGTPITQGVEMTTPSKQSNNKYAASSYLSLTPEQWRSRRSYSCQVMHEGSTVEKTVAPAECS chain 2: MSWAPVLLMLFVYCTGCGPQPVLHQPPAMSSALGTTIRLTCTLRNDHDIGVYSVYWYQQRPGHPPRFLLRYFSQSDKSQGPQVPPRFSGSKDVARNRGYLSISVTHVFGSGTQLTVLSQPKAQVQLVQ", "values": [
      {"measurement": "EC50", "setting": "[1]", "result": 61, "unit": "pM"},
      {"measurement": "EC50", "setting": "[2]", "result": 181, "unit": "pM"}
    ]}
  ]
}
